Data from the DeepSol protein solubility set.

test: soluble on expression in E. coli; label from the status in PepcDB or PDB records

| Sequence | soluble on expression in E. coli |
| --- | --- |
| MTETDKKQEQENHAECEDKPKPCCVCKPEKEERDTCILFNGQDSEKCKEFIEKYKECMKGYGFEVPSAN | soluble |
| MTETEQTTAPIYPLKRNWTWWYLNDERNKSWEDRLKKVYTFNTVSEFWALYDAIRPPSGLNALCDYNVFRDDIQPMWEVPENSNGGRWLIVIDKGKTPEMVDAIWLEILMALVGEQFGKDMESICGLVCNVRGKGSKISVWTKDCNDDETNMRIGVVLKEKLMAASKDHSKPLFDVIRYEDHESCQKKTSSVVKAKLSLHSSDAPVAEKSAV | not soluble |
| MTFTGLPPEDVPALMTGAVIPHPSVAGRADAYLPSPCIQNHAANLAFLPDGTLSCVWFGGTMEGMRDISIYMSRLPPGSGRWSEPEKMSDDPEKSEQNPLIFNAPDGKTWLLYTSQTSGNQDGSIVKCRISDDGGKTFGPVQILCDSPGTFVRQQIVVNDRGDWLLPIFRCVGLEGQRWSGDADTAAVLISRDGGASWQMRDIPDSIGAVHMNILPLGGCEMIAFYRNRFAETILSSRSADGGETWSPPEPTELPNNNSSIQATVLDNGGIAMVYNHSNATMSDARRQSLYDEIEGDECGENAAVVADAGRKAVWGVPRAPLSLAISRDGGRTFPHRIDLDTGDGFCLSNNSKDSLNREFSYPSVIEGSDGTLHVAYTYYRRAIKYVRLAPRALPLEHHHHHH | soluble |
| MTGAVCPGSFDPVTLGHVDIFERAAAQFDEVVVAILVNPAKTGMFDLDERIAMVKESTTHLPNLRVQVGHGLVVDFVRSCGMTAIVKGLRTGTDFEYELQMAQMNKHIAGVDTFFVATAPRYSFVSSSLAKEVAMLGGDVSELLPEPVNRRLRDRLNTERT | not soluble |
| MTGDHIKVIYFNGRGRAESIRMTLVAAGVNYEDERISFQDWPKIKPTIPGGRLPAVKITDNHGHVKWMVESLAIARYMAKKHHMMGGTEEEYYNVEKLIGQAEDLEHEYYKTLMKPEEEKQKIIKEILNGKVPVLLDIICESLKASTGKLAVGDKVTLADLVLIAVIDHVTDLDKEFLTGKYPEIHKHRENLLASSPRLAKYLSDRAATPF | soluble |
| MTGLINAIPATNKDEYKNVGVYIEHRGDELKRPSIEMIGIGKQLARKVNEKLICVVIGDKVDGIAKEVGEYGCDIVLAAESPELAEYRTMPYAEIIGGYIQEYKPNIFLLAATRNGRDLASRIAVKSRTGITADCTVLDIDENRTLLANRPTYGESTLAEILCRNHRPQMATARPGIFPPAEKEKDHKYEVIKKKVDVDKKLLGKQILKFI | not soluble |
| MTGRLQNKVIVITGASSGIGEQVAMQVAEQGATPVLMARTEEKLKALADKIKETYNTPCYYYVLDVSEETEVQSVFSKVLQEVGRIDILVNNAGFGIFKTFEDASMDEVKDMFQVNVFGLVACTKAVLPYMVKRNEGHIINIASLAGKIATPKSSAYAATKHAVLGFTNSLRMELSSTNVFVTAINPGPIDTNFFEIADQSGTYVKNMGRYMLKPTYVAEQIVKSMQTKKREVNLPKWMGIGPKLYALFPGLFERVAGKSLSKK | not soluble |
| MTGSQVIDAEEDRHKLVVEYKDALQPADFYHNFKQRGIRSVQLIPYLEFDDRGDLTAASVTAELWGKFLIALFECWVRADISRISIELFDATLQKWCGSENPQPRCDCQACDWHRLCPHARQETPDSVLCAGYQAFYSYSAPHMRVMRDLIKQHRSPMELMTMLR | not soluble |
| MTGTSNIPTHGKEHKDAPALLPLPAPNPHHTHAAHPGNPSHDRPPSRGKLFIKTHGCQMNEYDSAKMADVLTTTEALELTDNPEEADIILINTCSIREKAQEKVFSQLGRWRALKTSGRDVIIGVGGCVASQEGEAIVKRAPYVDLVFGPQTLHRLPDMIRARREQNRPQVDIRFPEIEKFDHLPTPRAEGPSAFVSIMEGCSKYCSFCVVPYTRGEEVSRPFEDVLTEIAHLATQGVREINLLGQNVNAYRGAMDPGPSNNTNPAPPPYADLGLLIRAIAQFESIGRIRFTTSHPLEFSDSLVEAYRDVPQLANHLHLPVQSGSDRILSAMKRGYTALEFKSKIRKLRAVRPDISISSDFIIGFPGESDTDFQKTMQLIEDIGFDQSFSFIYSRRPGTPASNLEDHTPDEIKRTRLEHLQKHINTYAADISKRMIGTVQTVLVEGPSKKNPNELTGKTENMRPVNFPGHPRLIGQFIDVHITEALSNSLRGRVHTNLEHHHHHH | soluble |
| MTGVGTPSPSLEWRRRVMSWTDERVSTLKKLWLDGLSASQIAKQLGGVTRNAVIGKVHRLGLSGRAAPSQPARPAFKAPRPARPAAQAMPSAPRRVTPVEAPTSVPVAAAPAPLPAFRHEEPGSATVLTLGAHMCKWPIGDPSSEGFTFCGRRSSEGPYCVEHARVAYQPQQTKKKSGGAELARSLRRYILEHHHHHH | not soluble |
| MTGWGDHDSLYINPYENRNKLRTYSEYFPIVEVDSSFYAMQPARNYTKWAMETPKDFSFIVKAYQGMTGHMKGEIPFSTFDEMFDVYKQSILPLIEAGKLKTILFQYPPWFDCKKKNVDFLRYTKEKMEGLPCAIEFRNQTWFYPEMRDRTLQFLEQEKWIHTICDEPQAGIGSVPLVLEVTNSDMALIRFHGRNVHGWLDKGENWRAVRCLYRYNNKELEEWVERLEQLKKKTKDIYVLFNNNSGGDAADNAKQLMKMMNITYGEPKPEQLNFFE | not soluble |
| MTHDNIDILVVDDDISHCTILQALLRGWGYNVALANSGRQALEQVREQVFDLVLCDVRMAEMDGIATLKEIKALNPAIPVLIMTAYSSVETAVEALKTGALDYLIKPLDFDNLQATLEKALAHTHSIDAETPAVTASQFGMVGKSPAMQHLLSEIALVAPSEATVLIHGDSGTGKELVARAIHASSARSEKPLVTLNCAALNESLLESELFGHEKGAFTGADKRREGRFVEADGGTLFLDEIGDISPMMQVRLLRAIQEREVQRVGSNQIISVDVRLIAATHRDLAAEVNAGRFRQDLYYRLNVVAIEVPSLRQRREDIPLLAGHFLQRFAERNRKAVKGFTPQAMDLLIHYDWPGNIRELENAVERAVVLLTGEYISERELPLAIASTPIPLGQSQDIQPLVEVEKEVILAALEKTGGNKTEAARQLGITRKTLLAKLSR | soluble |
| MTHLGGKVRSSGFLIPGSAPVSGTPPQGQGGLASSRVYEDSGGSLLSFSPMIHPNLAPLIAPSAYARLNLLNHCIFLEAFKEENSGQGLGGVQREVLFLKRDIIKQVIARIVAADSTLDLVNHGEPGREAPRRAQ | not soluble |
| MTHQKRLSVPKSWKVGRKGNKWISTTRPGPHSQARSLPLGLIIRDVLKLVDNNREGKRILSEGKVLVDGISRKDLRFPVGLFDVITLPLVNEAYRMLQDEKGRLVLYKLNETNVNKLCRINNKTTVKGGKIQLNLNDGTNILGSNDYGTKDSLILSIPDKHVVKHLKFEVGNLAMVIGGQHSGETGKIMEIREVKSSRHNTVMISGETDFETIEDYVIVIGEDKPEIRLGGEISELEHHHHHH | soluble |
| MTIDLNAMLAKRAEVLGEGNKFDVKLGNKTFYFVAPELASSEWNDRHQAFLEDIRDGLMTSATAREEFLGLALEDQAEEFAEAADNIGVDPFIIAQMAFQEHAEYVGKTQSQKSLNRTQRRAKQR | not soluble |
| MTIIGNPEIGLYTGKLPKGCELCRLGGKLVLFITGECDDNCYYCPVSDDRFGKNKIFANETEVNNSMDVIYEAYRMKALGAGITGGDPILEIGRVIEIIEELKNEFGYDFHIHLYTTGRYVNDDIMRELVNAGLDEMRFHPVKELYLNAVKVALKYDIDIGLELPAIPNEKDKIVRLIKWAEENNVKFVNLNELELNSRNYLNLNSKGFHAKHGITGVEGSFETALDVLKKFEDNKKITVHYCSSIYKDLVETRTRFFRIIKYSSKPYEEYTNEATVVRAIVKTKGEIPILENFGESTGSDEYSISPSIVGDLLNDYTNLINEIYIVEEHPDSRRLRVGEKLIYSKSKNS | not soluble |
| MTIKTTMGILAGKASHFVLSKLGRGSTLPGKIALKFDKDILDTLAKDYEIVVVTGTNGKTLTTALTVGILKEAYGEIVTNPSGANMITGITSTFLTAKRAKSGKKIAVLEIDEASLPKITEYITPSLFVFTNIFRDQMDRYGEIYTTYQMILDGAAKAPAATILANGDSPLFNSKELVNPVRFYGFDTEKHAPELTHYNTEGIVCPKCESILQYHLNTYANLGDYVCLNCDFHRPELDYKLTQLTKITNTTSEFIIDGQDYKINVGGLYNIYNALAAVSVAEFFGVVPEQIKAGFDKSRAIFGRQETFKIGDKSCTLVLIKNPVGASQALDMIKLADYPFSLSVLLNANYADGIDTSWIWDANFESILDMDIPEINAGGVRHSEIARRLRVTGYPEDKITQAEKLEDIMTLIEKQDCDHAYILATYTAMLEFRDILAQRHAVGKGMN | not soluble |
| MTINEPLLSPLEQVVRNIEQVIVGKRNVIVLSLTALLAKGHVLLEDVPGVGKTMLVRALAKSFSAELKRIQFTPDLLPSDVIGVSVYNPKTQQFEYKPGPIVAHIVLADEINRTSPKTQSALLEAMEEGSVTVDGVTRALPQPFFVMATQNPIEYEGTYPLPEAQLDRFLLKLHMRYPSPDEEIEMLNRLEKTAPLAEIGPVMSLDELLALQRKVADVHVSDTVKRYIVDLIQQSRQHEAVYLGVSPRGSVALMKAAQAYAFIHGRDFVIPDDVQQLAPYVLAHRLLVRPEAKWDKFDAETIIGQLIARTPVPVPGRR | not soluble |
| MTIPLPGLEVRGSKTGKPIMALLDLLGRTWSLGIIWNLHSGPATFRELQQRCEKISPTLLNTRLKELKTLQLVECQEAGYQLTHQGLDLFDIISPLGSWSSQWAQGLKEDSK | not soluble |
| MTKDQRRSLTKKALLDALVICLKDQDFNEITTIRLVQTAGISRSSFYTHYKDKFEMIDSYQKELFHKLEYIFDKYEGKKEGAFLEIFEILTREKLLSALLSTNGAKEIQDFLINKLQRMIAKDFIDPTAEKRALKGFEKDYASIYLAHAIFGACQAWIKNGKKESPQEMTDFLLRFIPQ | not soluble |
| MTKEEFIKQKEQRKTFLVIAEEEGDSITPISLYRRMKGKKKFLLESSQLHQDKGRYSYLGCNPYGEVKSVGTEVERTIYGRAEKLQSNVLQVLEEIIAPSQVDSPFPFCGGAVGYIGYDVIRQYENIGADLHDPLNIPEVHLLLYREFIVYDHLRQKLSFVYVCREDDSADYEEVYERLRVYKEEVLQGEEAEVTEIRSTLSFTSSITEREFCVMVETAKEHIGAGDIFQVVLSQRLQSECIGDPFALYRKLRIANPSPYMFYIDFQDYVVLGSSPESLLSVREDKVMTNPIAGTRPRGKTKEEDTEIEKELLENEKERAEHMMLVDLGRNDIGRVSEIGSVTIDKYMKVEKYSHVMHIVSEVYGTLRKQMSGFDALAYCLPAGTVSGAPKIRAMEIINELENEKRNVYAGAVGYVSFSGNLDMALAIRTMVVKDEKAYVQAGAGIVYDSDPVAEYEETLNKARALLEVMK | not soluble |
| MTKFDLNDSSVVVIVGSGAGGGTLGNELAQKGVKVVILEAGPRIENQDFINDEWESFSQLAWTDARTTSGTWRVAKDFSGLPAWIVKAVGGSTVHWAGASLRFDEHEFRVKSAYGNIPGANLLDWPVTLAEMEPWYAKAENKMGVTRTNGIPGLPGNNNFKVLEAGAKKLGYKTVHTGNMAINSQPRDGRGSCQQIGFCFQGCKSGAKWSTLYTEIPKGEATGNLEVRPSSMAVKIEHDAGGKVTGVVYADEAGAMQRQKARIVAVAGNSIESPRLLLNSASTMFPDGLANSSGQVGRNYMRHMTGSVYAVFEKSVHMYRGTTMAGIIRDEAANNPKRGFVGGYEMETLSIGLPFMAAFLNPGAWGRPFTSALDGYPRMAGMWLVGEDMPQETNRITLDPVVKDKFGQPVASVHFDDHPNDIAMRAHAYKQGAAVYDAVGATVTYPTPPYPSTHNLGTNRMSEKPRDGVVNKFGQSHDVKNLFVSDGSQFTSGAACNPTLTIVALAIRQADYIAGAMQKKEILEHHHHHH | not soluble |
